T1: (NPNA)4 peptide (Plasmodium falciparum CSP repeat …)
T1 chain: NPNANPNANPNANPNA

B1: native anti-NANP Fab (Fab, V domains shown)
VH: EVQLVESGGGLVQPGRSLRLPCTASGFSFGDHAMSWVRQAPGKGLEWVGFIRKTTYGATTHYAAAVRGRFTISRDDSKSIVYLQMNSLKTEDTAVYFCTRVQLDYGPGYQYYGMDVWGQGTTVTVSS
VL: ESVLTQPPSVSGAPGQRVTISCTGMNSNIGAGYDVYWYQQLPGRAPKLLIYGNSNRPSGVPDRFSGSRSGTSASLAITGLQAEDEADYYCQSYDTSLNGWAFGGGTKLTVL
B2: G112T mutant anti-NANP Fab (Fab, V domains shown)
VH: B1 VH
VL: B1 VL

Molecular target: T1, (NPNA)4 peptide
Assay: SPR

Binder	binding result
B1	binds
B2	binds

Reference: paper PMC12617621 (Computational and Structural Biotechnology Journal, 2025)
